According to article PMC10453824:

Tested on: T1, rVapB47 (rRv3407) (Mycobacterium bovis BCG Moreau), ORF:ad596061
T1 sequence: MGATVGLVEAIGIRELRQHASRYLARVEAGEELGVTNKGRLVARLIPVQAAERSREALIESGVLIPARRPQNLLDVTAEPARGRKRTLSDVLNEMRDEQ
Assay: EMSA

Sequence	binding
TCGACGTGTACGGGCAGGCTAGCCGGGTGATCAGCGGGGCGCCGATGGAGATCGCTGGCTGATCAACCAGTAAGCGCAACGCAATTATGTAGCACCATGCGTGCTACCGTTGGGCTTGTGGA (double strand) [07promF-R2 (122 bp)]	binds
GGTGCTACATAATTGCGTTGCGCTTACTGGTTGATCAGCCAGCGATCTCCATCGGCGCCCCGCTGATCACCCGGCTAGCCTGCCCGTACACGTCGA (double strand) [07promF-R1 (96 bp)]	no binding
